Data taken from paper PMC2217413 (The Journal of General Physiology, 2004).

B1: GST-fusion protein of TRPV1 amino acids 149–222 (domain or fragment)
chain: KDPETGKTCLLKAMLNLHNGQNDTIALLLDVARKTDSLKQFVNASYTDSYYKGQTALHIAIERRNMTLVTLLVE
B2: GST-fusion protein of TRPV1 amino acids 189–222 (domain or fragment)
chain: FVNASYTDSYYKGQTALHIAIERRNMTLVTLLVE
B3: GST-fusion protein of TRPV1 amino acids 189–250 (domain or fragment)
chain: FVNASYTDSYYKGQTALHIAIERRNMTLVTLLVENGADVQAAANGDFFKKTKGRPGFYFGEL

Target: calmodulin immobilized on agarose beads (CaM-agarose) (UniProt P62157 1-149)
Assay: pull-down

Binding result, binds:
B1, B2, B3
